Results from the supplement of paper PMC10724198.
± gives the standard deviation of the averaged measurements.

Experiments:
Saccharomyces cerevisiae [1] = experiment: protein stability index of tFT-peptide fusion (C-terminal peptide) (PSI (0-1 scale)); higher = more stable (slower turnover); conditions: genetic background: wild type; temperature: 30 C
Saccharomyces cerevisiae [2] = experiment: as above
Description: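 MPS profiling in S. cerevisiae of the tFT-X12 degron library: putative degron peptides plus stable controls, 12 aa, fused to the C-terminus of a sfGFP-mCherry timer. Cells are FACS-sorted into 8 mCherry/sfGFP bins and deep-sequenced. PSI runs from 0 (unstable) to 1 (stable). Backgrounds are wild type, das1Δ and doa10Δ at 30 °C, and wild type, das1Δ, cdc34-1 and cdc53-1 at 37 °C; 2-3 technical replicates each.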

[3] = genetic background: cdc34-1, temperature: 37 C
[4] = genetic background: cdc53-1, temperature: 37 C
[5] = genetic background: das1 deletion, temperature: 30 C
[6] = genetic background: das1 deletion, temperature: 37 C
[7] = genetic background: doa10 deletion, temperature: 30 C
[8] = genetic background: wild type, temperature: 30 C
[9] = genetic background: wild type, temperature: 37 C
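Note: PSI is a weighted mean of sequencing reads over stability bins, variants kept only with over 10 reads, mCherry proximal and sfGFP distal, peptide attached via GGGS linker.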

Row | Sequence | protein stability index (Saccharomyces cerevisiae [1]) | protein stability index (Saccharomyces cerevisiae [2]; [3]) | protein stability index (Saccharomyces cerevisiae [2]; [4]) | protein stability index (Saccharomyces cerevisiae [2]; [5]) | protein stability index (Saccharomyces cerevisiae [2]; [6]) | protein stability index (Saccharomyces cerevisiae [2]; [7]) | protein stability index (Saccharomyces cerevisiae [2]; [8]) | protein stability index (Saccharomyces cerevisiae [2]; [9])
1 | FWWVGCGWCRWG | 0.378 ± 0.011 | 0.619 ± 0.019 | 0.73 ± 0.023 | 0.602 ± 0.036 | 0.708 ± 0.011 | 0.2446 ± 0.0022 | 0.269 ± 0.025 | 0.4351 ± 0.00096
2 | FYPFHVFCLLIF | 0.243 ± 0.029 | 0.18 ± 0.028 | 0.177 ± 0.037 | 0.254 ± 0.017 | 0.361 ± 0.012 | 0.18 ± 0.023 | 0.162 ± 0.028 | 0.228 ± 0.0053
3 | GAICCFCCYLVF | 0.514 ± 0.043 | 0.554 ± 0.0089 | 0.625 ± 0.026 | 0.505 ± 0.028 | 0.626 ± 0.035 | 0.463 ± 0.025 | 0.47 ± 0.014 | 0.597 ± 0.031
4 | GALWPGALRFLN | 0.171 ± 0.026 | 0.587 ± 0.045 | 0.747 ± 0.05 | 0.671 ± 0.023 | 0.81 ± 0.022 | 0.101 ± 0.014 | 0.104 ± 0.015 | 0.195 ± 0.035
5 | GCLGYTLSCFTY | 0.401 ± 0.015 | 0.563 ± 0.014 | 0.64 ± 0.038 | 0.525 ± 0.051 | 0.626 ± 0.0015 | 0.519 ± 0.019 | 0.51 ± 0.027 | 0.643 ± 0.015
6 | GCVVLNTVAFIC | 0.167 ± 0.037 | 0.492 ± 0.0084 | 0.583 ± 0.017 | 0.448 ± 0.025 | 0.625 ± 0.0075 | 0.108 ± 0.0055 | 0.127 ± 0.019 | 0.136 ± 0.018
7 | GELDVRKLLKYF | 0.342 ± 0.086 | 0.688 ± 0.02 | 0.718 ± 0.043 | 0.669 ± 0.011 | 0.768 ± 0.019 | 0.154 ± 0.034 | 0.172 ± 0.036 | 0.383 ± 0.0041
8 | GFAFFIGLSFAF | 0.475 ± 0.034 | 0.559 ± 0.015 | 0.588 ± 0.012 | 0.459 ± 0.025 | 0.5794 ± 0.0051 | 0.465 ± 0.0074 | 0.461 ± 0.01 | 0.565 ± 0.011
9 | GFFCVWSLLFFN | 0.283 ± 0.016 | 0.328 ± 0.045 | 0.395 ± 0.016 | 0.262 ± 0.045 | 0.449 ± 0.018 | 0.218 ± 0.031 | 0.187 ± 0.021 | 0.385 ± 0.005
10 | GFFLCTCIRFWV | 0.316 ± 0.016 | 0.452 ± 0.018 | 0.518 ± 0.034 | 0.386 ± 0.027 | 0.544 ± 0.01 | 0.2478 ± 0.0011 | 0.254 ± 0.028 | 0.421 ± 0.018
